US20170022277A1 (NATIONAL RESEARCH COUNCIL OF CANADA, published 2017)
Changes are numbered by the printed parent chain.

B1: IGF1R-4 VHH (VHH)
VHH: QVKLEESGGGLVQAGGSLRLSCEVSGGTVSPTAMGWFRQAPGKEREFVGHITWSRGTTRVASSVKDRFTISRDSAKNTVYLQMNSLKSEDTAVYYCAASTFLRILPEESAYTYWGQGTQVTVSS
notes: Llama VHH, monomeric; Expressed from pSJF2H in TG1 E. coli and purified by IMAC; also called anti-IGF1R VHH IGF1R-4
B2: IGF1R-4_H4 (VHH)
VHH: QVQLVESGGGLVQPGGSLRLSCAVSGGTVSPTAMGWFRQAPGKGLEFVGHITWSRGTTRYASSVKGRFTISRDSSKNTVYLQMNSLRAEDTAVYYCAASTFLRILPEESAYTYWGQGTLVTVSS
notes: Humanized variant of IGF1R-4; expressed from pSJF2H in E. coli and purified by IMAC; any vector tag is not described
B3: IGF1R-4_H2 (VHH)
VHH: B2 VHH with F37V, F47W, S74N
notes: as for B2
B4: IGF1R-4_H5 (VHH)
VHH: B2 VHH with G44E, L45R
notes: as for B2
B5: IGF1R-4_H3 (VHH)
VHH: B2 VHH with S74N
notes: as for B2

Target: T1, recombinant human Insulin Receptor (R&D systems) (human, UniProt P06213-2 28-944, limits assumed)
T1 construct: extracellular domain; Bought protein; About 4000 RU immobilized on a CM5 chip; also called IR; recombinant extracellular portion of the human Insulin Receptor
Assay: SPR, IGF1R-4 VHH (0.5 - 50nM) over immobilized recombinant human Insulin Receptor

T1 sequence (P06213 other isoform, or with tags, fused parts or gaps limits assumed): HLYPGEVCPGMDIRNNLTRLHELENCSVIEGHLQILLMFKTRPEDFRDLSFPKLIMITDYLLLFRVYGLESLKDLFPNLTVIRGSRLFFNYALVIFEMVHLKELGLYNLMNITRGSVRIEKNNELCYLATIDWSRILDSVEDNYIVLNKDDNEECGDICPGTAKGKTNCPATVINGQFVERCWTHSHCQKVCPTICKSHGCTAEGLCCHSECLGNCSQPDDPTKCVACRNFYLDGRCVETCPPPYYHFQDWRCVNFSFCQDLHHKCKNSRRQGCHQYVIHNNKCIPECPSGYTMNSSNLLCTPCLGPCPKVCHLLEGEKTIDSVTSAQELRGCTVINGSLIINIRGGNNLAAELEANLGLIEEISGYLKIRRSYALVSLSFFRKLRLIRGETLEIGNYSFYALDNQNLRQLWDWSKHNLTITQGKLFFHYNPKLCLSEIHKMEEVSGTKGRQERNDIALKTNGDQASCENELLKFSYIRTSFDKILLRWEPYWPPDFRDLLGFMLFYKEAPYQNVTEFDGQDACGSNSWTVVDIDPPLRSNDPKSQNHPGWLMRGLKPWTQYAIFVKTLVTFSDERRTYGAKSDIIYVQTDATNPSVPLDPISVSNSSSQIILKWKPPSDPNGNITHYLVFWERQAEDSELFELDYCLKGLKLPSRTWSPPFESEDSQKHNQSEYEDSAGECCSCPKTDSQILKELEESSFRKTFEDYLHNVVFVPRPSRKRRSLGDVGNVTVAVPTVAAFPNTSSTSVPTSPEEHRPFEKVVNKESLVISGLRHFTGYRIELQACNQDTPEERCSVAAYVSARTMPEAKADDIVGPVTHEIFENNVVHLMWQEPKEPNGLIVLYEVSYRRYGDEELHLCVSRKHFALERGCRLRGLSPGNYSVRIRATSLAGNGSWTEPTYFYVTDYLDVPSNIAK

Question: Does B1 bind?
Answer: no binding (tested: 50 nM)

Target: T2, recombinant human IGF1R extracellular fragment IGF1R^933-His (human, UniProt P08069 31-933)
T2 construct: It holds the full alpha subunit, the furin site RKRR and most of the extracellular part of the beta subunit; Amine-coupled to a CM5 chip for SPR; also called recombinant extracellular portion of the human IGF1R fragment; not shown: His tag from pCDN4/myc-His vector
Assay: SPR (BIACORE 3000), human IGF1R immobilized on CM5, 1:1 model
Experimental: Approximately 3000 Resonance Units (RU) of recombinant human IGF1R were immobilized on a Sensor chip CM5. Immobilization was carried out at a concentration of 10 μg/ml in 10 mM acetate at pH4.0 using the amine coupling kit supplied by the manufacturer. The remaining binding sites were blocked with 1 M ethanolamine pH 8.5. An ethanolamine blocked surface was used as a reference surface. For the binding studies, analyses were carried out at 25° C. in 10 mM HEPES, pH7.4 containing 150 mM NaCl, 3 mM EDTA and 0.005% surfactant P20 (Polyoxyethylenesorbitan; GE Healthcare). […] Surfaces were regenerated with 10 mM glycine pH 2.0 with a contact time of 24 seconds. Data were analyzed with BIAevaluation 4.1 software (GE Healthcare).

T2 sequence (P08069 31-933): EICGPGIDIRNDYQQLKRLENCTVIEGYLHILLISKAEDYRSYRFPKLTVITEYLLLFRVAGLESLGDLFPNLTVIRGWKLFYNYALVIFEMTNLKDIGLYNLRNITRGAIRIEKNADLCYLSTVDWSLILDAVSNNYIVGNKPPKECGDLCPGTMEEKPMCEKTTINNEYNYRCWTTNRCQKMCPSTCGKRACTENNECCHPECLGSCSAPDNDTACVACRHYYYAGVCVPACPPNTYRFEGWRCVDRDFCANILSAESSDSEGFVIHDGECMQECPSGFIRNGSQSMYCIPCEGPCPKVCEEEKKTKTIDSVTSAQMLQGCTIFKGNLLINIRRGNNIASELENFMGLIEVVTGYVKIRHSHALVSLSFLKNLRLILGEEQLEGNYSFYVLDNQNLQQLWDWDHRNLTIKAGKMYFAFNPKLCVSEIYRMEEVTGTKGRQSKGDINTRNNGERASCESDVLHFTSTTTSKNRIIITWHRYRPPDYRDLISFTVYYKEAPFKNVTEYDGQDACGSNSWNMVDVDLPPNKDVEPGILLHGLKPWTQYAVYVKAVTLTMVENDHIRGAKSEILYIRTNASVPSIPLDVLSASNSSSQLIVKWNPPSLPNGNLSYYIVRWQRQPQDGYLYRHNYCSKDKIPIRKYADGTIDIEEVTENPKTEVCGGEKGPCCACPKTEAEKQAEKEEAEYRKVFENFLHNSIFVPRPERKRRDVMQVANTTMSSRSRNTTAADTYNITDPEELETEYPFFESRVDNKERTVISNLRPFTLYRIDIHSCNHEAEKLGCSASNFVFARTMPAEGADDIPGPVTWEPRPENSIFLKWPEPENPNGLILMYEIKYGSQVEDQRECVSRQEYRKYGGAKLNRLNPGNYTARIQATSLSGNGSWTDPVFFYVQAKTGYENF

Question: What does the source list for B2?
Answer: Kd: 0.45 nM; koff: 0.00039 s⁻¹

Question: What does the source list for B1?
Answer: Kd: 0.32 nM; koff: 0.00029 s⁻¹

Question: How did the Kd turn out when B3 was run?
Answer: 1.07 nM

Question: And the koff?
Answer: 0.00061 s⁻¹

Question: For B4, which Kd is on record?
Answer: 0.52 nM

Question: What about the koff of the same binder?
Answer: 0.00046 s⁻¹

Question: B5 was tested. Which Kd did it give?
Answer: 0.39 nM

Question: What about the koff of the same binder?
Answer: 0.00034 s⁻¹
